# From US20190071513A1 (APTEVO RESEARCH AND DEVELOPMENT, published 2019)
# Read-outs that look alike come from different tables or passages of the source.
# B1: TRI129 (bispecific antibody)
# chain: EVQLLESGGGLVQPGGSLRLSCAASGFTFSSYGMSWVRQAPGKGLEGVSAISGSGGSTYYADSVKGRFTISRDNSKNTLYLQMNSLRAEDTAVYYCAKEKLRYFDWLSDAFDIWGQGTMVTVSSGGGGSGGGGSGGGGSGGGGSDIVMTQSPDSLAVSLGERATINCKSSHSVLYSSNNKNYLAWYQQKPGQPPKLLIYWASTRESGVPDRFSGSGSGTDFTLTISSLQAEDVAVYYCQQYYSTPPTTFGGGTKVEIKSSSEPKSSDKTHTCPPCPAPEAAGAPSVFLFPPKPKDTLMISRTPEVTCVVVDVSHEDPEVKFNWYVDGVEVHNAKTKPREEQYNSTYRVVSVLTVLHQDWLNGKEYKCAVSNKALPAPIEKTISKAKGQPREPQVYTLPPSRDELTKNQVSLTCLVKGFYPSDIAVEWESNGQPENNYKTTPPVLDSDGSFFLYSKLTVDKSRWQQGNVFSCSVMHEALHNHYTQKSLSLSPGSGGGGSGGGGSGGGGSPSQVQLVQSGPEVKKPGSSVKVSCKASGYTFSRSTMHWVRQAPGQGLEWIGYINPSSAYTNYNQKFKDRVTITADKSTSTAYMELSSLRSEDTAVYYCARPQVHYDYNGFPYWGQGTLVTVSSGGGGSGGGGSGGGGSGGGGSDIQMTQSPSTLSASVGDRVTMTCSASSSVSYMNWYQQKPGKAPKRWIYDSSKLASGVPSRFSGSGSGTDYTLTISSLQPDDFATYYCQQWSRNPPTFGGGTKVEIKRS
# notes: scFv-Fc-scFv, anti-CD123 × anti-CD3ε; dimer; also called OMT1 VHVL × TSC456 scFv-Fc-scFv
# B2: TSC266 (bispecific antibody)
# chain: DIQMTQSPSAMSASVGDRVTITCRASKSISKYLAWFQQKPGKVPKLRIHSGSTLQSGVPSRFSGSGSGTEFTLTISSLQPEDFATYYCQQHIEYPWTFGQGTKVEIKRGGGGSGGGGSGGGGSQVQLVQSGAEVKKPGASVKVSCKASGYTFTDYYMHWVRQAPGQGLEWMGYFNPYNDYTRYAQKFQGRVTMTRDTSISTAYMELSSLRSDDTAVYYCARSDGYYDAMDYWGQGTTVTVSSSEPKSSDKTHTCPPCPAPEAAGAPSVFLFPPKPKDTLMISRTPEVTCVVVDVSHEDPEVKFNWYVDGVEVHNAKTKPREEQYNSTYRVVSVLTVLHQDWLNGKAYACAVSNKALPAPIEKTISKAKGQPREPQVYTLPPSRDELTKNQVSLTCLVKGFYPSDIAVEWESNGQPENNYKTTPPVLDSDGSFFLYSKLTVDKSRWQQGNVFSCSVMHEALHNHYTQKSLSLSPGQRHNNSSLNTGTQMAGHSPNSQVQLVESGGGVVQPGRSLRLSCKASGYTFTRSTMHWVRQAPGQGLEWIGYINPSSAYTNYNQKFKDRFTISADKSKSTAFLQMDSLRPEDTGVYFCARPQVHYDYNGFPYWGQGTPVTVSSGGGGSGGGGSGGGGSAQDIQMTQSPSSLSASVGDRVTMTCSASSSVSYMNWYQQKPGKAPKRWIYDSSKLASGVPARFSGSGSGTDYTLTISSLQPEDFATYYCQQWSRNPPTFGGGTKLQITSSS
# notes: anti-PSMA scFv - Fc - anti-CD3 scFv (CRIS-7 derived) at the C-terminus; also called anti-PSMA×CRIS-7 scFv-Fc-scFv
# B3: TRI168 (bispecific antibody)
# chain 1: QAVVTQEPSLTVSPGGTVTLTCRSSTGAVTTSNYANWVQQKPGQAPRGLIGGTNKRAPWTPARFSGSLLGGKAALTITGAQAEDEADYYCALWYSNLWVFGGGTKLTVLGGGGSGGGGEVQLVQSGAELKKPGASVKVSCKASGYTFTDYYMKWVRQAPGQGLEWIGDIIPSNGATFYNQKFKGRVTITVDKSTSTAYMELSSLRSEDTAVYYCARSHLLRASWFAYWGQGTLVTVSSGGCGGGEVAALEKEVAALEKEVAALEKEVAALEK
# chain 2: DFVMTQSPDSLAVSLGERVTMSCKSSQSLLNSGNQKNYLTWYQQKPGQPPKLLIYWASTRESGVPDRFSGSGSGTDFTLTISSLQAEDVAVYYCQNDYSYPYTFGQGTKLEIKGGGSGGGGEVQLVESGGGLVQPGGSLRLSCAASGFTFSTYAMNWVRQAPGKGLEWVGRIRSKYNNYATYYADSVKDRFTISRDDSKNSLYLQMNSLKTEDTAVYYCVRHGNFGNSYVSWFAYWGQGTLVTVSSGGCGGGKVAALKEKVAALKEKVAALKEKVAALKESSSLNDIFEAQKIEWHEDYKDDDDKDYKDDDDKDYKDDDDKHHHHHHHHHH
# B4: anti-human CD123 monoclonal antibody 7G3 (antibody, from another filing, V domains shown)
# VH: EVQLQQSGPELVKPGASVKMSCKASGYTFTDYYMKWVKQSHGKSLEWIGDIIPSNGATFYNQKFKGKATLTVDRSSSTAYMHLNSLTSEDSAVYYCTRSHLLRASWFAYWGQGTLVTVSA
# VL: DFVMTQSPSSLTVTAGEKVTMSCKSSQSLLNSGNQKNYLTWYLQKPGQPPKLLIYWASTRESGVPDRFTGSGSGTDFTLTISSVQAEDLAVYYCQNDYSYPYTFGGGTKLEIKR
# Columns and labels:
# [1] = molecular target: T1, human CD123 on the surface of CD123(+) cell lines (human, UniProt P26951 19-378); assay: flow cytometry on CD123(+) Molm-13 cells, PE anti-human IgG Fc secondary antibody, MFI; table under the graph
# T1 construct: whole, on cells; endogenous protein of tumor cell lines; also called interleukin-3 receptor alpha chain; IL3RA
# T1 sequence (P26951 19-378 limits assumed, form in doubt): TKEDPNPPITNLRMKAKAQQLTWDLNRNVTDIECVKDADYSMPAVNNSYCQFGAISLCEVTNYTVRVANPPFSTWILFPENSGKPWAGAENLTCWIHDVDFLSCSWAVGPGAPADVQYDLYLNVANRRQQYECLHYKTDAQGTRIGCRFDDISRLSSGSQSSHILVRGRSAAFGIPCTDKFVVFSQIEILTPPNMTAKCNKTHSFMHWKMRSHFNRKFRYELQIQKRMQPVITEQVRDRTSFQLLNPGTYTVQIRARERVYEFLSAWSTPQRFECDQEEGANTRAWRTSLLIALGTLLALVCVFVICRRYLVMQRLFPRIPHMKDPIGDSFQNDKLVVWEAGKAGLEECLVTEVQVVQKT
# Method: (§1) The Molm-13 cell line was obtained from DSMZ (Braunschweig, Germany). The Molm-13 cell line was cultured according to the provided protocols. Chinese hamster ovary (CHO) cells stably expressing the full length cynomolgus CD123 protein were developed in-house. […] Signal from bound molecules was detected using a LSR-II™ flow cytometer (BD Biosciences) and analyzed by FlowJo flow cytometry analysis software. Mean fluorescence intensity (MFI) of bound molecules on cells was determined after exclusion of doublets. Nonlinear regression analysis to determine EC50 values was performed in GraphPad Prism 7® graphing and statistics software.
# [2] = molecular target: T2, human CD123 ectodomain with Avi-3xFLAG-His affinity tag (TRI032) (human); assay: SPR (Biacore T200), bispecific captured by anti-Fc, monomeric CD123 ECD as analyte, 25 C, 1:1 model
# T2 construct: also called CD123 ECD; recombinant monomeric CD123 ectodomain (ECD)
# T2 chain: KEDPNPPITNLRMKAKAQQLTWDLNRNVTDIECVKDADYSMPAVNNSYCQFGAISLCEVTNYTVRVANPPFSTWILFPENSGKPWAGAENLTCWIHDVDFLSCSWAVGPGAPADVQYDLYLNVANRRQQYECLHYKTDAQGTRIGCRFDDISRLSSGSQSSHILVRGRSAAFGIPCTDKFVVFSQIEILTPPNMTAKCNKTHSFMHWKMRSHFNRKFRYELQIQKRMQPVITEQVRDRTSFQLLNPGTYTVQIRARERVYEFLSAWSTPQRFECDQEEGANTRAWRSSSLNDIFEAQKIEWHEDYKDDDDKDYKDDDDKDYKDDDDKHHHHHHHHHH
# Method: SPR binding studies of bispecific molecules to recombinant monomeric CD123 ectodomain (ECD) were conducted at 25° C. in HBS-EP+ buffer. […] The bispecific molecules at 200 nM in HBS-EP+ buffer were captured by the immobilized anti-Fc F(ab′)2 fragment at a flow rate of 30 μL/min for 120 sec to reach a stable 2000 RU response. […] Optimal regeneration was achieved by one injection of 10 mM glycine (pH 1.7) at a flow rate of 30 μL/min for 15 sec followed by one injection of 50 mM NaOH at 30 μL/min for 15 sec. A two minute stabilization with HBS-EP+ buffer was completed before the subsequent run.
# Sensorgrams obtained from kinetic SPR measurements were analyzed by the double subtraction method. The signal from the reference flow cell was subtracted from the analyte binding response obtained from flow cells with immobilized or captured ligands. Buffer reference responses were then averaged from multiple injections. […] All sensorgrams were fitted using a simple one-to-one binding model.
# [3] = molecular target: T1, human CD123 on the surface of CD123(+) …; assay: flow cytometry on CD123(+) Molm-13 cells, PE anti-human IgG Fc secondary antibody, MFI; table under the graph; remark: listed apart in the source
# Method: as §1
# [4] = molecular target: T3, Full-length cynomolgus CD123, isoform 1 (TRI114), on transfected cells (cynomolgus monkey); assay: flow cytometry on CHO cells stably expressing cynomolgus CD123, PE anti-human IgG Fc secondary antibody, MFI; table under the graph
# T3 construct: also called cyno CD123; CHO cells stably expressing cynomolgus CD123 protein
# T3 chain: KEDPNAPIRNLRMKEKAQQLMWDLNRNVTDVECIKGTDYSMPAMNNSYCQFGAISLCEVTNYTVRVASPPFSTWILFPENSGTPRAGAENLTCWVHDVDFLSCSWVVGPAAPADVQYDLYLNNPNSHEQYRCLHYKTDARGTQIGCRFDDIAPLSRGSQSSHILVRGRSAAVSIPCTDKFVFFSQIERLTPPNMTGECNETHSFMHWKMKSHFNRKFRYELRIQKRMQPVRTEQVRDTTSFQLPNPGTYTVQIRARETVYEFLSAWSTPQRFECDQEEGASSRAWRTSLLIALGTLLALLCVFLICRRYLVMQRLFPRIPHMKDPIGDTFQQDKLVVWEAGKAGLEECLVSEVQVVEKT
# Method: as §1
# [5] = molecular target: T4, CD3ε on Jurkat cells and human T-cells (human, UniProt P07766 23-207); assay: flow cytometry on CD3ε(+) Jurkat cells, PE anti-human Fc secondary
# T4 construct: whole, on cells; on cells CD3ε stands in the TCR/CD3 complex; also called CD3 epsilon; CD3ε(+) Jurkat cell line
# T4 sequence (P07766 23-207): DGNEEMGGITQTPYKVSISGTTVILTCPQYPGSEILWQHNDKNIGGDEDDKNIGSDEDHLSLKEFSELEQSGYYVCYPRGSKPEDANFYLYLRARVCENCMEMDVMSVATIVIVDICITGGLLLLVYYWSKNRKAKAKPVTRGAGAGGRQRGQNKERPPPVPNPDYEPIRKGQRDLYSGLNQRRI
# Method: Flow cytometry was used to quantitate binding of constructed molecules to the CD3ε expressing Jurkat cell line. Binding studies on the CD3ε(+) Jurkat cell line were performed by standard flow cytometry-based staining procedures. […] Signal from bound molecules was detected using a LSR-II™ flow cytometer (BD Biosciences) and analyzed by FlowJo flow cytometry analysis software. Mean fluorescence intensity (MFI) of bound molecules on cells was determined after exclusion of doublets.
# [6] = molecular target: T1, human CD123 on the surface of CD123(+) …; assay: cell-based or functional assay
# [7] = molecular target: human CD123 on the surface of CD123(+) cell lines (human) (UniProt P26951); assay: flow cytometry competition on Molm-13 cells: preincubation with unlabeled 7G3, then PE-conjugated 7G3 at 13 nM as the competitor that is read
# human CD123 on the surface of CD123(+) cell lines (human), sequence (P26951 19-378 limits assumed, form in doubt): as the sequence (P26951 19-378 limits assumed, form in doubt) above
# [8] = molecular target: human CD123 on the surface of CD123(+) cell lines (human) (UniProt P26951); assay: cell-based or functional assay
# [9] = molecular target: human CD123 on the surface of CD123(+) cell lines (human) (UniProt P26951); assay: flow cytometry competition on Molm-13 cells; competitor PE-conjugated 7G3 at 13 nM
binder,measurement,setting,value
B1,EC50,[1],9.69 nM
same,Kd,[2],11.4 nM
same,koff,[2],0.00205 s⁻¹
same,kon,[2],179000 M⁻¹ s⁻¹
same,EC50,[3],5.33 nM
same,EC50,[4],8.77 nM
B2,EC50,[5],2 nM
same,fold reduction of binding against DRA240,[5],~10 fold
B3,"EC50 of T-cell activation (CD4+ and CD8+ CD25+ CD69+) with Molm-13 cells, 24 hours",[6],< 0.01 nM
same,"EC50 of T-cell proliferation (CFSE) with Molm-13 cells, 4 days",[6],0.002 to 0.005 nM
B4,IC50 (read off the curve),[7],2 nM
same,"IL-3 induced proliferation of TF-1 cells (CyQUANT), 4 days",[8],100%
same,percent inhibition of binding of PE-conjugated 7G3,[9],100%
